How the values were obtained:
[1] = Circular dichroism of liposomal lipopeptides (percent helicity); assay type: physicochemical; conditions: formulated in liposomes; estimated from θ222
Procedure: Liposomal lipopeptide samples were prepared as described above with the following modifications. Stock liposome solutions containing 5 mM carrier lipid and 500 μM lipopeptide were prepared in 10 mM phosphate, pH 7.4. To minimize light scattering, liposomes were prepared by bath sonication under argon until a size of less than 100 nm was obtained. For analysis, samples were diluted to 5 μM lipopeptide in 10 mM phosphate buffer containing 1 mM carrier lipid. Spectra were obtained with a J-715 spectrapolarimeter (Jasco, Easton, Md.) and data were processed using Jasco software. Data were acquired in continuous scanning mode with a pathlength of 1 cm, 0.1 nm interval and scan speed of 1 nm/s. Each spectrum represents an average of two scans. A background spectrum of “empty” liposomes in buffer was subtracted from each sample spectrum. Percent helicity was estimated from θ222 according to the method of Taylor and Kaiser.

[2] = system: N-MPR (2F5 epitope of HIV-1 gp41 MPR); conditions: BALB/C mice, Day 28 sera
Procedure: All animal procedures were conducted in accordance with the policies and approval of the appropriate Institutional Animal Care and Use Committee. 8 week-old female BALB/C mice (Jackson Laboratories, Bar Harbor, Me.) were housed in a pathogen-free barrier facility. Animals received subcutaneous immunizations in alternating hind hocks on Days 0 and 14. Each injection contained 50 μg lipopeptide, 25 μg MPL and 1 μmol lipid vehicle in 50 μL sterile phosphate-buffered saline. On Day 28 blood was collected from the submandibular vein for characterization of antibody responses. Cells were removed by centrifugation at 14,000 rpm for 15 min (5415C, Eppendorf, Westbury, N.Y.) and sera were stored at −80° C. until use.
ELISAs were developed to quantify binding of immune sera to peptides, lipids, and recombinant gp140. Peptide ELISAs were conducted using MPR peptides biotinylated as described above and captured on 96 well streptavidin-coated plates (#15120, Pierce, Rockford, Ill.). Assays were performed according to the manufacturer's instructions with modifications. […] The reaction was stopped with 0.5M H2SO4 and the yellow product was monitored at 450 nm (Optimax, Molecular Devices, Sunnyvale, Calif.). […] IgG1/IgG2a ratios were calculated as an average of optical density quotients measured at 3 dilutions after subtraction of background values. […]

## N-MPR: peptide corresponding to the 2F5 epitope of HIV-1 gp41 MPR (SEQ ID NO: 2) (NEQELLELDKWASLWNGGK)
[1]
  helicity (helical content): 20.7%
[2]
  mice with detected anti-peptide response: 2 of 5

Source: patent US10369229B2, “Methods and compositions for liposomal formulation of antigens and uses thereof” (priority 2009, dated 2019)
